Tests used:
[1] = target: Vpr-derived peptide 1a, Vpr(69-75) (HIV-1, UniProt Q73369); assay: fluorescence anisotropy; 7.5 mM MgCl2; peptide up to 37 µM, no IN; IN-activity buffer: 50 mM MOPS pH 7.2, 7.5 mM MgCl2, 14 mM 2-mercaptoethanol; 10 nM DNA, +/- 400 nM IN; 5 min room temperature preincubation, anisotropy read every 30 s for 30 min; conditions: label: AlexaFluor 488 at 5' end of 21T; blunt
HIV-1 integrase (IN) = HIV-1 integrase (IN) (HIV-1 (strain ), UniProt P12497 1148-1435); assay: fluorescence anisotropy; IN-activity buffer: 50 mM MOPS pH 7.2, 7.5 mM MgCl2, 14 mM 2-mercaptoethanol; 10 nM DNA, +/- 400 nM IN; 5 min room temperature preincubation, anisotropy read every 30 s for 30 min; conditions: protein: recombinant; tags: His6 or FLAG constructs described; chain copies: 4; label: AlexaFluor 488 at 5' end of 21T; blunt

Sequence of Vpr-derived peptide 1a, Vpr(69-75) (Q73369 whole entry, looked up): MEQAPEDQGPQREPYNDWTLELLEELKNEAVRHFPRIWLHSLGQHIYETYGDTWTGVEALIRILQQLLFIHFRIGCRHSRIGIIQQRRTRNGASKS

B1: 21T/21B duplex (HIV-1 viral DNA end substrate) (dsDNA)
DNA 1: GTGTGGAAAATCTCTAGCAGT
DNA 2: ACTGCTAGAGATTTTCCACAC
Does B1 bind [1]?
Result: no binding

Does B1 bind (HIV-1 integrase (IN))?
Result: binds

— article PMC6222646, “HIV-1 Integrase-Targeted Short Peptides Derived from a Viral Protein R Sequence”
